Laboratory results as given in patent US20150299265A1 (Molecular Partners, published 2015).

Biological target: T1, Recombinant human HER2 ectodomain (human, UniProt P04626 23-652, biotinylated on primary amines (for SPR and crude extract ELISA))
T1 construct: extracellular domain; also called ErbB2; ectodomain of human HER2; not shown: Flag tag
Assay: ELISA on plate-coated full length HER2 (domain I-IV), detection by anti-RGS-His antibody; with and without 500 nM soluble HER2 domain I or domain I-III

B1: DARPin #50 (designed binder)
chain: MRGSHHHHHHGSDLGKKLLEAARAGQDDEVRILMANGADVNAKDKDGYTPLHLAAREGHLEIVEVLLKAGADVNAKDKDGYTPLHLAAREGHLEIVEVLLKAGADVNAQDKFGKTAFDISIDNGNEDLAEILQKLN
notes: also called negative control ankyrin repeat domain
- binding result: no binding (tested: 20 nM (not printed on the sheet))
